# Laboratory results reported in article PMC5601083.
# Molecular target: T1, RbsR (Serratia sp. ATCC39006) (UniProt A0A2I5T2K0)
# T1 sequence: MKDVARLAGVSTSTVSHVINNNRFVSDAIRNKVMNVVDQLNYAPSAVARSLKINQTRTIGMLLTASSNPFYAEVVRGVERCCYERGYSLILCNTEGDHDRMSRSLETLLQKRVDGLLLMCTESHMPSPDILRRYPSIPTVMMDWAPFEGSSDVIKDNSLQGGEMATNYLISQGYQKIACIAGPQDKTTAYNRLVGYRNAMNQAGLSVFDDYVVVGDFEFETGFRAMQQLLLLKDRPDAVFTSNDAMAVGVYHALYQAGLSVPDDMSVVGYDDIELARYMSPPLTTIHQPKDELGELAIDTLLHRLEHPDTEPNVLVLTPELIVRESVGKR
# Test: EMSA
# Details: complete band shift at 14 nM RbsR (protein:DNA 2.8:1); 10% glycerol, 10 mM Tris pH 8.0, 1 mM DTT, 10 mM KCl, 0.5 mM EDTA, BSA (printed 20 ug m-1), 5 nM probe, 30 min on ice; 7.5% native gel in TGE at 4 C
substance,measurement,value
rbsD upstream probe (LUEGO),binding,14 nM
